The results in this text go back to doi:10.1101/2021.12.09.472013 (bioRxiv, 2021).

This series deals with the molecule itself. Briefly: fluorescence fluctuation spectroscopy.

B1: SS-torsinA^WT-EGFP (natural protein, UniProt O14656 21-332, looked up)
chain: VEPISLGLALAGVLTGYIYPRLYCLFAECCGQKRSLSREALQKDLDDNLFGQHLAKKIILNAVFGFINNPKPKKPLTLSLHGWTGTGKNFVSKIIAENIYEGGLNSDYVHLFVATLHFPHASNITLYKDQLQLWIRGNVSACARSIFIFDEMDKMHAGLIDAIKPFLDYYDLVDGVSYQKAMFIFLSNAGAERITDVALDFWRSGKQREDIKLKDIEHALSVSVFNNKNSGFWHSSLIDRNLIDYFVPFLPLEYKHLKMCIRVEMQSRGYEIDEDIVSRVAEEMTFFPKEERVFSDKGCKTVFTKLDYYYDD
B1 gave a normalized brightness b greater than 3.

B2: SS-EGFP-torsinA^WT (natural protein, UniProt O14656 21-332, looked up)
chain: B1 chain
As for B2, the stoichiometry N (as a rule, a count of units in the complex or per binding partner) is no less than 3.

B3: SS-EGFP-torsinA^50-332 (domain or fragment, UniProt O14656 50-332, looked up)
chain: CGQKRSLSREALQKDLDDNLFGQHLAKKIILNAVFGFINNPKPKKPLTLSLHGWTGTGKNFVSKIIAENIYEGGLNSDYVHLFVATLHFPHASNITLYKDQLQLWIRGNVSACARSIFIFDEMDKMHAGLIDAIKPFLDYYDLVDGVSYQKAMFIFLSNAGAERITDVALDFWRSGKQREDIKLKDIEHALSVSVFNNKNSGFWHSSLIDRNLIDYFVPFLPLEYKHLKMCIRVEMQSRGYEIDEDIVSRVAEEMTFFPKEERVFSDKGCKTVFTKLDYYYDD
Take B3: the normalized brightness b was roughly 8.

B4: SS-EGFP-torsinA^ΔNTD (natural protein, UniProt O14656 21-332, looked up)
chain: VEPISCLFAECCGQKRSLSREALQKDLDDNLFGQHLAKKIILNAVFGFINNPKPKKPLTLSLHGWTGTGKNFVSKIIAENIYEGGLNSDYVHLFVATLHFPHASNITLYKDQLQLWIRGNVSACARSIFIFDEMDKMHAGLIDAIKPFLDYYDLVDGVSYQKAMFIFLSNAGAERITDVALDFWRSGKQREDIKLKDIEHALSVSVFNNKNSGFWHSSLIDRNLIDYFVPFLPLEYKHLKMCIRVEMQSRGYEIDEDIVSRVAEEMTFFPKEERVFSDKGCKTVFTKLDYYYDD
Consider B4, for which the normalized brightness b was roughly 13.
